Measured values: publication PMC3035457 (Nucleic Acids Research, 2010)

Molecular target: T1, MBP-GCM1(167–349) (human, UniProt Q9NP62 167-349)
T1 sequence: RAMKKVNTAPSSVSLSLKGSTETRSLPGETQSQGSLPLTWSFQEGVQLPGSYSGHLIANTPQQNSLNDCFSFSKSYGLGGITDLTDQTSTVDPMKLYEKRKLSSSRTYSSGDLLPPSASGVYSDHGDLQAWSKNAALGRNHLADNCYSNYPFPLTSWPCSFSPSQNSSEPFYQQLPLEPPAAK
Test: pull-down

B1: recombinant DUSP23-FLAG (DUSP23 with a C-terminal FLAG tag) (enzyme)
chain: MGVQPPNFSWVLPGRLAGLALPRLPAHYQFLLDLGVRHLVSLTERGPPHSDSCPGLTLHRLRIPDFCPPAPDQIDRFVQIVDEANARGEAVGVHCALGFGRTGTMLACYLVKERGLAAGDAIAEIRRLRPGSIETYEQEKAVFQFYQRTK
- binding result: binds
